Assay results taken from patent US20260125455A1 (CLEVELAND CLINIC FOUNDATION, published 2026).

Assays:
[1] = biological target: T1, human complement protein C6 (human, UniProt P13671 22-934); assay: BLI (Octet RED384), antibody on anti-mouse Fc (AMC) biosensors, C6 0.16-10 nM, 1:1 fit, experiment 1
T1 construct: also called human C6; C6 antigen
Experimental: (§1) The binding of the purified chimeric molecules, MoC601 HuG4K and MoC601 HuG1KFab, was also confirmed by ELISA, where the anti-human IgG (Fab-specific) secondary reagent was used. The control mouse antibody bound as previously (EC₅₀ 0.11 nM). The EC₅₀ for purified MoC601 HuG4K (0.27 nM) was similar to that obtained for the MoC601 HuG4K supernatant sample above. […] The EC₅₀ value for the Fab molecule (0.48 nM) was higher than for the antibody, which would be expected since the Fab is unable to bind bivalently to the antigen on the well. A C6-binding assay was also set up on the Octet RED384 instrument. […] However, MoC601 MoG1K could be stably loaded onto anti-mouse Fc (AMC) biosensors. Concentrations of the mouse and chimeric antibodies were adjusted to give similar levels of loading on to the AMC and
(§2) Protein G biosensors respectively in subsequent experiments. There was no non-specific binding of C6 protein to unloaded sensors or sensors loaded with an isotype control antibody. A full kinetic experiment was run for purified MoC601 MoG1K and MoC601 HuG4K antibodies using seven concentrations of C6 (0.16-10 nM) and association and dissociation steps of 20 and 15 minutes respectively. The mouse and chimeric datasets were processed by subtracting the no antigen controls and the data were fitted to a 1:1 binding model. […]

[2] = biological target: T1, human complement protein C6; assay: BLI (Octet RED384), antibody on anti-mouse Fc (AMC) biosensors, C6 0.27-5 nM, 1:1 fit, experiment 2
Experimental: as §1
Protein G biosensors respectively in subsequent experiments. There was no non-specific binding of C6 protein to unloaded sensors or sensors loaded with an isotype control antibody. […] The mouse and chimeric datasets were processed by subtracting the no antigen controls and the data were fitted to a 1:1 binding model. Binding curves giving Req/Rₘₐₓ ratios>90% or showing poor fitting were excluded from analysis. A second full kinetic experiment was performed with an adjusted concentration range (six points, 0.27-5 nM) and an extended dissociation step of 20 minutes.

[3] = biological target: T1, human complement protein C6; assay: ELISA, C6-coated wells, same experiment as the chimeric supernatants
Experimental: The chimeric molecules, MoC601 HuG4K and MoC601 HuG1KFab, were tested for C6 binding in the form of expression supernatants. In this experiment, the human molecules were detected with an HRP-conjugated goat anti-human kappa chain reagent, which gave relative low signals. However, the binding of both chimeric molecules to C6 was confirmed. The EC₅₀ value for MoC601 HuG4K (0.43 nM) was higher than that of the mouse antibody (0.07 nM), though this was lower than in previous experiments. A further experiment was performed to find a more suitable anti-human antibody detection reagent. MoC601 HuG4K from expression supernatant was detected with three different secondary antibodies. Both anti-human IgG Fc-specific and Fab-specific detection gave higher signals than the anti-kappa chain reagent but the Fc-specific detection yielded a very low EC₅₀ (0.03 nM).

[4] = biological target: T1, human complement protein C6; assay: ELISA, C6-coated wells
Experimental: as §1, with “AMC and […]” for “AMC and”

[5] = biological target: T1, human complement protein C6; assay: ELISA, C6 coated at 0.5 and 1.0 µg/ml, anti-mouse IgG (Fc-specific) HRP
Experimental: Prior to the generation of the chimeric molecules, the binding ELISA was optimised using purified mouse 1C9 antibody. The ELISA method published in Lin et al., 2020, uses human C6 protein at a concentration of 1 nM (0.12 μg/ml) to coat the ELISA plate wells. Since this is lower than the concentrations generally used, coating concentration of 0.5 μg/ml and 1.0 μg/ml were also tested. Binding of the mouse antibody (designated MoC601 MoG1K) was detected with an HRP-conjugated goat anti-mouse IgG (Fc-specific) reagent in an ELISA assay. […] This is likely to make the assay unsuitable for differentiating between the binding of different humanized variants to C6. In contrast, C6 coating concentrations of 0.5 μg/ml and 1.0 μg/ml yield results which show a clear dose-response to MoC601 MoG1K antibody, with sigmoidal-shaped curves and a consistent EC₅₀ value (0.12 nM). […] Due to lower signal variation, 1.0 μg/ml was used as the C6 coating concentration in subsequent experiments.

[6] = biological target: T1, human complement protein C6; assay: BLI (Octet RED384), antibody on anti-mouse Fc (AMC) biosensors, C6 0.16-10 nM, 1:1 fit, experiment 1; experiment 1
Experimental: as §1, §2

T1 sequence (P13671 22-934 limits assumed): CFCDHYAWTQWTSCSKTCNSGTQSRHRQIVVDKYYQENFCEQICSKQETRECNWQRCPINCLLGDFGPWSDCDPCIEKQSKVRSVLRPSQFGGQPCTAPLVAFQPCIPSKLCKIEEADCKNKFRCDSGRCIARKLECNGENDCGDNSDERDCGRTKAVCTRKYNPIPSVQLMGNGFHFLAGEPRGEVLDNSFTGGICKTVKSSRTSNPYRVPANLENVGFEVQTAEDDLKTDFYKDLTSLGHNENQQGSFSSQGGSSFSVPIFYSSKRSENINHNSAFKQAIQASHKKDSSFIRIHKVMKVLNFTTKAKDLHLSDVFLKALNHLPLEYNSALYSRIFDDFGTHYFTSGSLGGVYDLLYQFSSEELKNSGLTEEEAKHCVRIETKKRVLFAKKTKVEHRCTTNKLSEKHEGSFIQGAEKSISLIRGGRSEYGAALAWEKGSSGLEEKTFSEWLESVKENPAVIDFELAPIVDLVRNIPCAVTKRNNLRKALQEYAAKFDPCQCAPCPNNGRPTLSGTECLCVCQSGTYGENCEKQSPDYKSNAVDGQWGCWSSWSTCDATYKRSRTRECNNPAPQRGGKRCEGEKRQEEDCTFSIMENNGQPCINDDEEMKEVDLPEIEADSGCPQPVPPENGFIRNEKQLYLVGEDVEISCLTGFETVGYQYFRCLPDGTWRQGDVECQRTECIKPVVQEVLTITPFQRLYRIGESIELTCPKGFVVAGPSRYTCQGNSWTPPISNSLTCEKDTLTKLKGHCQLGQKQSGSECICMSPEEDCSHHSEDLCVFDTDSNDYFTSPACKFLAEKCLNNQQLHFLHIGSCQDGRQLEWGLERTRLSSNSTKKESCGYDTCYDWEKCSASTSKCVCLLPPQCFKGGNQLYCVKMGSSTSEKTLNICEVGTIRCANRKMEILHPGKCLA

B1: MoC601 MoG1K (mouse anti-C6 monoclonal antibody 1C9) (antibody, V domains shown)
VH: QVQLQQSGAELVKPGASVKISCKASGYAFSDYWMNWVKQRPGKGLEWIGQIYPGDDDTNYNGKFKGKATLTADKSSSTAYMQLSSLTSEDSAVYFCAREGYYGYTYVEYFDVWGTGTTVTVSS
VL: QIVLTQSPAIMSVSPGEKVTLTCSASSSVSYMHWYQQKSGTSPKRWIYDTSKLASGVPARFSGSGSGTSYSLTISSMEAEDAATYYCQQWTSNPLTFGAGTKLELR
notes: also called mAb 1C9; mouse antibody
[1]
  Kd: 0.42 nM
  kon: 730000 M⁻¹ s⁻¹
[2]
  Kd: 0.29 nM
  kon: 690000 M⁻¹ s⁻¹
[3]
  EC50: 0.07 nM
[4]
  EC50: 0.11 nM
[5]
  EC50: 0.12 nM
[6]
  koff: 0.00031 s⁻¹
